Measured values: PMC5591402 (2017)
Changes are numbered by the printed parent chain. Like-named read-outs stand apart in the source and are kept apart here. Where no end group is shown, it is not given here.

B1: TAMRA-labeled α-synuclein peptide (peptide)
peptide: GYQDYEPEA
modifications: also: TAMRA fluorophore, position not given here
B2: N2.5 VHH (VHH)
VHH: QGQLVESGGGSVQAGGSLRLSCAASGIDSSSYCMGWFRQRPGKEREGVARINGLSGVKTAYADSVKDRFTISRDNAENTVYLQMNSLKPEDTAIYYCAAKSSPGYCGGTWFSFGYWGQGTQVTVSS
B3: N2.17 reversion mutant F96 (VHH)
VHH: B2 VHH with L54W, S55G, S101F, S112N
B4: N2.17 reversion mutant L52b (VHH)
VHH: B2 VHH with S55G, S112N
B5: N2.17 reversion mutant S100d (VHH)
VHH: B2 VHH with L54W, S55G, T109S, S112N
B6: N2.12 reversion mutant S100d (VHH)
VHH: B2 VHH with A49G, L54W, S55R, V57I, T109S, F111S, S112N
B7: N2.12 reversion mutant L52b (VHH)
VHH: B2 VHH with A49G, S55R, V57I, F111S, S112N
B8: N2.12 reversion mutant F96 (VHH)
VHH: B2 VHH with A49G, L54W, S55R, V57I, S101F, F111S, S112N
B9: N2.12 reversion mutant A49 (VHH)
VHH: B2 VHH with L54W, S55R, V57I, F111S, S112N
B10: N2.16 VHH (VHH)
VHH: B2 VHH with A49G, L54W, F111Y, S112N
B11: N2.17 reversion mutant S100f (VHH)
VHH: B2 VHH with L54W, S55G, F111S, S112N
B12: N2.12 reversion mutant G53 (VHH)
VHH: B2 VHH with A49G, L54W, S55G, V57I, F111S, S112N

Tests used:
Experiment in all cases: FP
[1] = target: I55V/N2.12
[2] = target: N2.8
[3] = target: N2.2
[4] = target: N2.15
[5] = target: N2.3
[6] = target: N2.6
[7] = target: N2.9
[8] = target: N2.4
[9] = target: N2.1
[10] = target: N2.13
[11] = target: N2.10
[12] = target: N2.14
[13] = target: N2.11
[14] = target: N2.7
[15] = target: B1
[16] = target: B1

Binder: B1
Kd [1]: 5.7 nM
Kd [2]: 28.5 nM
Kd [3]: 23 nM
Kd [4]: 23.1 nM
Kd [5]: 11.4 nM
Kd [6]: 25.1 nM
Kd [7]: 28 nM
Kd [8]: 14.3 nM
Kd [9]: 14.3 nM
Kd [10]: 20.3 nM
Kd [11]: 31.6 nM
Kd [12]: 16.2 nM
Kd [13]: 21.6 nM
Kd [14]: 15.1 nM

Binder: B2
Kd [15]: 55.3 nM

Binder: B3
Kd [16]: 72.2 nM

Binder: B4
Kd [16]: 30 nM

Binder: B5
Kd [16]: 27.5 nM

Binder: B6
Kd [16]: 11.9 nM

Binder: B7
Kd [16]: 16.9 nM

Binder: B8
Kd [16]: 18.6 nM

Binder: B9
Kd [16]: 8.2 nM

Binder: B10
Kd [15]: 11.2 nM

Binder: B11
Kd [16]: 11 nM

Binder: B12
Kd [16]: 14.1 nM
